The series concerns the molecule itself. Description: size exclusion chromatography on a column calibrated with protein standards; self-association. On the technique in general: Size exclusion chromatography separates by hydrodynamic size, large species first.

B1: Dsg407 from Cyanophage Syn10 GenBank: AGH56623.1 (enzyme)
chain: MKIESVAIVGGGSSGWMTAAALSKLCPQLEIALIEDPNIKTVGVGESTLGHFNKFLHLLDLKDEDWMPACNATYKNSIRFTNFREGKGEVFEYPFGPSLDVSFFSQTDGINTWGKLANKYPEDFPPETFARFVNSNTYLAEHNRLTRNKDNKIPNFNFDWDTAYHIDAELFGQYLKEKIALPNGVKHIQGKVTGYQKESPNNHNFKYIILDQETAIFADLYIDCTGFKSLLLGEFMGEAFSPFSKKLANDKAMATRIPYENREEEMHNVTDCHAMKNGWVWNIPLWNRIGTGYCYSSRFVSKDDAEAEFREHLGERGKDAKIFHIDIGHGKRTRAWVNNCVGIGLSYGFIEPLESTGLLTTHENIENLVYLINQRDGYVTQAERDGFNYTCDHQIDSFSDFVAMHYAYSMRTDTPYWKWCTQMCNYMPESMGPHRQKQSTWQDLSTDTIGLNTWHINHNGISFIIAGHGLRPQSYDKLSEVLLKRNNESDYYYEDIRKDWLKHYESMVEYVKTLPTHYEFLRDEIYGSAE
notes: also called hypothetical protein CPUG_00131; viral halogenase Dsg407
In the case of B1, the binding result was “binds”.

The record behind these values is patent US20260045319A1 (UNIVERSITY COURT OF THE UNIVERSITY OF ST ANDREWS, published 2026).
